Measurements reported in US20140087995A1 (published 2014).
Each block holds one binder with its values, some of them ahead of it. Numbered stars: 1 amine (or outer) side, 2 acyl side, 3 side chain; on linkers, the order of the positions; unused ones are H or OH. Bridge positions count the residues as written; N and C are the ends. Side chains are listed from the residue outwards. Ends that are not written are not given here. * marks the point of attachment. C20 diacid = O=C(O)CCCCCCCCCCCCCCCCCCC(=O)*; γGlu = O=C(O)[C@H](CCC(=O)[*:2])N[*:1]

Legend:
[1] = biological target: T1, rat amylin receptor (rat calcitonin receptor + rat RAMP 3) (rat, UniProt P32214 25-516; Q9JJ73 23-147); assay: SPA competition vs 125I-rat amylin, membranes (Assay VI)
T1 construct: whole, on cells; Membranes prepared from transiently transfected BHK tk'ts 13 cells; also called rAmylin-R; rat amylin 3(a) receptor
T1 sequence (looked up) 1: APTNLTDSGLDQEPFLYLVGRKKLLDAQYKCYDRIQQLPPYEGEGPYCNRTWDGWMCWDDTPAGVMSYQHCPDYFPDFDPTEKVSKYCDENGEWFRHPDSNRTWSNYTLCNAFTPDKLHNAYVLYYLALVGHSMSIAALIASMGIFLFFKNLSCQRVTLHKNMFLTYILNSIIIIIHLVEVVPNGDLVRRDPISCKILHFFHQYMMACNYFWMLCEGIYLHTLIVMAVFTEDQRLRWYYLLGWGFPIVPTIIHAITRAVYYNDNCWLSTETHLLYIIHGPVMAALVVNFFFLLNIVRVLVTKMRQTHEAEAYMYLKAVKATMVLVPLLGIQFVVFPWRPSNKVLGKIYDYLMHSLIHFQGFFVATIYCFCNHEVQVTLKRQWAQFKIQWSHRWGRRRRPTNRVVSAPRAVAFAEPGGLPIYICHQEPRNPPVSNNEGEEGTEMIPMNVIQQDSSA
T1 sequence (looked up) 2: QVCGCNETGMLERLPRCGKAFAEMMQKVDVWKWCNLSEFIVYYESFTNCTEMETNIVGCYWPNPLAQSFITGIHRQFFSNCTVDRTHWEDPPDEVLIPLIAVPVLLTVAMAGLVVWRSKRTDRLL

[2] = biological target: T2, rat calcitonin receptor (rat, UniProt P32214 25-516); assay: SPA competition vs 125I-calcitonin, membranes (Assay VIII)
T2 construct: whole, on cells; Membranes prepared from transiently transfected BHK tk'ts 13 cells; also called rCTR; rat calcitonin (a) receptor
T2 sequence (looked up): T1 sequence (looked up) 1

[3] = biological target: T2, rat calcitonin receptor; assay: ratio of IC50 on rat calcitonin receptor to IC50 on rat amylin receptor
[4] = biological target: T3, human calcitonin receptor (human, UniProt P30988 25-474); assay: ratio of IC50 on human calcitonin receptor to IC50 on human amylin receptor
T3 construct: whole, on cells; Membranes from stably transfected BHK cells; also called hCTR; hCT
T3 sequence (looked up): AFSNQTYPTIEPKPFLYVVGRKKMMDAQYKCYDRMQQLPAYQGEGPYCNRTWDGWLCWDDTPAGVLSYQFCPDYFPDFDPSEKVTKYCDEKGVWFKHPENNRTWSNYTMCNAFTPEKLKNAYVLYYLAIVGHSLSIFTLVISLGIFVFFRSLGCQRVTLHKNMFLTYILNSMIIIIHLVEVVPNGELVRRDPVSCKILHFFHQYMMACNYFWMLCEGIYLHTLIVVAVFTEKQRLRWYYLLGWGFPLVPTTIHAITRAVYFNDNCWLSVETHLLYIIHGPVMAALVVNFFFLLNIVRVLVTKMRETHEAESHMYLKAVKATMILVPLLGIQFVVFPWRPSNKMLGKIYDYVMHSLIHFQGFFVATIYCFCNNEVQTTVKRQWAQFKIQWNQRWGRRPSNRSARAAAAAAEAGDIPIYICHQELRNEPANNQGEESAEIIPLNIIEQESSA
How it was run: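 Competition binding by SPA with cell membranes (35 ng/μL) and SPA beads in 50 mM Hepes pH 7.4 with 1 mM CaCl2, 5 mM MgCl2, 0.1% OA and 0.02% Tween20. Incubated 120 min at 25 °C with shaking, then counted.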

Binder: K([γGlu-γGlu-C20 diacid])CNTATCATQRLAEFLRHSSPNFGAILSSTPVGPETY-NH2 (disulfide 2-7)
IC50 [1]: 0.449 nM | IC50 [2]: 33.5 nM | Ratio rCT/rAmylin binding [3]: 74.7 | Ratio hCT/hAmylin binding [4]: 22.6

B3: N^-1-[(4S)-4-carboxy-4-(19-carboxynonadecanoylamino)butanoyl]-Gly[Arg1,His14,Arg17,Pro21,Pro27,His34]-h-amylin (peptide)
peptide: {C20 diacid-γGlu}-GRCNTATCATQRLAHFLRHSSPNFGAIPSSTNVGHNTY-NH2
modifications: disulfide 3-8
SMILES: CC[C@H](C)[C@H](NC(=O)[C@H](C)NC(=O)CNC(=O)[C@H](Cc1ccccc1)NC(=O)[C@H](CC(N)=O)NC(=O)[C@@H]1CCCN1C(=O)[C@H](CO)NC(=O)[C@H](CO)NC(=O)[C@H](Cc1c[nH]cn1)NC(=O)[C@H](CCCNC(=N)N)NC(=O)[C@H](CC(C)C)NC(=O)[C@H](Cc1ccccc1)NC(=O)[C@H](Cc1c[nH]cn1)NC(=O)[C@H](C)NC(=O)[C@H](CC(C)C)NC(=O)[C@H](CCCNC(=N)N)NC(=O)[C@H](CCC(N)=O)NC(=O)[C@@H](NC(=O)[C@H](C)NC(=O)[C@@H]1CSSC[C@H](NC(=O)[C@H](CCCNC(=N)N)NC(=O)CNC(=O)CC[C@H](NC(=O)CCCCCCCCCCCCCCCCCCC(=O)O)C(=O)O)C(=O)N[C@@H](CC(N)=O)C(=O)N[C@@H]([C@@H](C)O)C(=O)N[C@@H](C)C(=O)N[C@@H]([C@@H](C)O)C(=O)N1)[C@@H](C)O)C(=O)N1CCC[C@H]1C(=O)N[C@@H](CO)C(=O)N[C@@H](CO)C(=O)N[C@H](C(=O)N[C@@H](CC(N)=O)C(=O)N[C@H](C(=O)NCC(=O)N[C@@H](Cc1c[nH]cn1)C(=O)N[C@@H](CC(N)=O)C(=O)N[C@H](C(=O)N[C@@H](Cc1ccc(O)cc1)C(N)=O)[C@@H](C)O)C(C)C)[C@@H](C)O
notes: also called compound 100
IC50 [1]: 11.2 nM | IC50 [2]: 311 nM | Ratio rCT/rAmylin binding [3]: 27.7 | Ratio hCT/hAmylin binding [4]: 65.3

B4: N^-1-[(4S)-4-carboxy-4-(19-carboxynonadecanoylamino)butanoyl]-Gly[Arg1,Ala14,Arg17,Pro21,Pro27,His34]-h-amylin (peptide)
peptide: {C20 diacid-γGlu}-GRCNTATCATQRLAAFLRHSSPNFGAIPSSTNVGHNTY-NH2
modifications: disulfide 3-8
SMILES: CC[C@H](C)[C@H](NC(=O)[C@H](C)NC(=O)CNC(=O)[C@H](Cc1ccccc1)NC(=O)[C@H](CC(N)=O)NC(=O)[C@@H]1CCCN1C(=O)[C@H](CO)NC(=O)[C@H](CO)NC(=O)[C@H](Cc1c[nH]cn1)NC(=O)[C@H](CCCNC(=N)N)NC(=O)[C@H](CC(C)C)NC(=O)[C@H](Cc1ccccc1)NC(=O)[C@H](C)NC(=O)[C@H](C)NC(=O)[C@H](CC(C)C)NC(=O)[C@H](CCCNC(=N)N)NC(=O)[C@H](CCC(N)=O)NC(=O)[C@@H](NC(=O)[C@H](C)NC(=O)[C@@H]1CSSC[C@H](NC(=O)[C@H](CCCNC(=N)N)NC(=O)CNC(=O)CC[C@H](NC(=O)CCCCCCCCCCCCCCCCCCC(=O)O)C(=O)O)C(=O)N[C@@H](CC(N)=O)C(=O)N[C@@H]([C@@H](C)O)C(=O)N[C@@H](C)C(=O)N[C@@H]([C@@H](C)O)C(=O)N1)[C@@H](C)O)C(=O)N1CCC[C@H]1C(=O)N[C@@H](CO)C(=O)N[C@@H](CO)C(=O)N[C@H](C(=O)N[C@@H](CC(N)=O)C(=O)N[C@H](C(=O)NCC(=O)N[C@@H](Cc1c[nH]cn1)C(=O)N[C@@H](CC(N)=O)C(=O)N[C@H](C(=O)N[C@@H](Cc1ccc(O)cc1)C(N)=O)[C@@H](C)O)C(C)C)[C@@H](C)O
IC50 [1]: 8.07 nM | IC50 [2]: 492 nM | Ratio rCT/rAmylin binding [3]: 60.9 | Ratio hCT/hAmylin binding [4]: 68.6

Binder: {C20 diacid-γGlu}-GRCNTATCATQRLAAFLRHSSPNFGAIPSSTNVGPNTY-NH2 (disulfide 3-8)
IC50 [1]: 0.436 nM | IC50 [2]: 56.3 nM | Ratio rCT/rAmylin binding [3]: 129 | Ratio hCT/hAmylin binding [4]: 26.5

The remaining binders from weak to strong by IC50 [1], led by results:

IC50 [1]: 0.205 nM | IC50 [2]: 23.4 nM | Ratio rCT/rAmylin binding [3]: 114 | Ratio hCT/hAmylin binding [4]: 18
B1: N^ε1-[(4S)-4-carboxy-4-[[(4S)-4-carboxy-4-(19-carboxynonadecanoylamino)butanoyl]amino]butanoyl]-[Glu14,Arg17,Pro21,Pro27,Pro34,Phe37]-h-amylin (peptide)
peptide: K([γGlu-γGlu-C20 diacid])CNTATCATQRLAEFLRHSSPNFGAIPSSTNVGPNTF-NH2
modifications: disulfide 2-7; N-terminus assumed
SMILES: CC[C@H](C)[C@H](NC(=O)[C@H](C)NC(=O)CNC(=O)[C@H](Cc1ccccc1)NC(=O)[C@H](CC(N)=O)NC(=O)[C@@H]1CCCN1C(=O)[C@H](CO)NC(=O)[C@H](CO)NC(=O)[C@H](Cc1c[nH]cn1)NC(=O)[C@H](CCCNC(=N)N)NC(=O)[C@H](CC(C)C)NC(=O)[C@H](Cc1ccccc1)NC(=O)[C@H](CCC(=O)O)NC(=O)[C@H](C)NC(=O)[C@H](CC(C)C)NC(=O)[C@H](CCCNC(=N)N)NC(=O)[C@H](CCC(N)=O)NC(=O)[C@@H](NC(=O)[C@H](C)NC(=O)[C@@H]1CSSC[C@H](NC(=O)[C@@H](N)CCCCNC(=O)CC[C@H](NC(=O)CC[C@H](NC(=O)CCCCCCCCCCCCCCCCCCC(=O)O)C(=O)O)C(=O)O)C(=O)N[C@@H](CC(N)=O)C(=O)N[C@@H]([C@@H](C)O)C(=O)N[C@@H](C)C(=O)N[C@@H]([C@@H](C)O)C(=O)N1)[C@@H](C)O)C(=O)N1CCC[C@H]1C(=O)N[C@@H](CO)C(=O)N[C@@H](CO)C(=O)N[C@H](C(=O)N[C@@H](CC(N)=O)C(=O)N[C@H](C(=O)NCC(=O)N1CCC[C@H]1C(=O)N[C@@H](CC(N)=O)C(=O)N[C@H](C(=O)N[C@@H](Cc1ccccc1)C(N)=O)[C@@H](C)O)C(C)C)[C@@H](C)O

IC50 [1]: 0.161 nM | IC50 [2]: 140 nM | Ratio rCT/rAmylin binding [3]: 868 | Ratio hCT/hAmylin binding [4]: 45.3
B2: N^ε1-[(4S)-4-carboxy-4-[[(4S)-4-carboxy-4-(19-carboxynonadecanoylamino)butanoyl]amino]butanoyl]-[Ser14,Arg17,Pro21,Pro27,Pro34,Glu35]-h-amylin (peptide)
peptide: K([γGlu-γGlu-C20 diacid])CNTATCATQRLASFLRHSSPNFGAIPSSTNVGPETY-NH2
modifications: disulfide 2-7; N-terminus assumed
SMILES: CC[C@H](C)[C@H](NC(=O)[C@H](C)NC(=O)CNC(=O)[C@H](Cc1ccccc1)NC(=O)[C@H](CC(N)=O)NC(=O)[C@@H]1CCCN1C(=O)[C@H](CO)NC(=O)[C@H](CO)NC(=O)[C@H](Cc1c[nH]cn1)NC(=O)[C@H](CCCNC(=N)N)NC(=O)[C@H](CC(C)C)NC(=O)[C@H](Cc1ccccc1)NC(=O)[C@H](CO)NC(=O)[C@H](C)NC(=O)[C@H](CC(C)C)NC(=O)[C@H](CCCNC(=N)N)NC(=O)[C@H](CCC(N)=O)NC(=O)[C@@H](NC(=O)[C@H](C)NC(=O)[C@@H]1CSSC[C@H](NC(=O)[C@@H](N)CCCCNC(=O)CC[C@H](NC(=O)CC[C@H](NC(=O)CCCCCCCCCCCCCCCCCCC(=O)O)C(=O)O)C(=O)O)C(=O)N[C@@H](CC(N)=O)C(=O)N[C@@H]([C@@H](C)O)C(=O)N[C@@H](C)C(=O)N[C@@H]([C@@H](C)O)C(=O)N1)[C@@H](C)O)C(=O)N1CCC[C@H]1C(=O)N[C@@H](CO)C(=O)N[C@@H](CO)C(=O)N[C@H](C(=O)N[C@@H](CC(N)=O)C(=O)N[C@H](C(=O)NCC(=O)N1CCC[C@H]1C(=O)N[C@@H](CCC(=O)O)C(=O)N[C@H](C(=O)N[C@@H](Cc1ccc(O)cc1)C(N)=O)[C@@H](C)O)C(C)C)[C@@H](C)O
notes: also called compound 120
